Laboratory results reported in patent publication US20110098443A1 (Janssen / Centocor, published 2011).

How the values were obtained:
[1] = biological target: T1, human GLP-1 receptor (full length, on cells) (human, UniProt P43220 24-463); assay: calculated from the 125I GLP-1 displacement IC50, assuming a GLP-1 Kd of 3 nM and competitive inhibition; Ki derived from the IC50, assuming GLP-1 Kd of 3 nM and competitive inhibition
[2] = biological target: T1, human GLP-1 receptor (full length, on …); assay: displacement of 3 nM 125I GLP-1 from HEK293F cells over-expressing human GLP-1R, overnight at 4 C; IC50 fitted directly from displacement of 3 nM 125I GLP-1
[3] = biological target: T1, human GLP-1 receptor (full length, on …); assay: cell-based or functional assay
[4] = biological target: T2, mouse IL-12 (biotinylated control protein) (mouse, UniProt P43431 23-215; P43432 23-335, biotinylated (site not stated)); assay: neutravidin capture ELISA
T2 sequence (looked up) 1: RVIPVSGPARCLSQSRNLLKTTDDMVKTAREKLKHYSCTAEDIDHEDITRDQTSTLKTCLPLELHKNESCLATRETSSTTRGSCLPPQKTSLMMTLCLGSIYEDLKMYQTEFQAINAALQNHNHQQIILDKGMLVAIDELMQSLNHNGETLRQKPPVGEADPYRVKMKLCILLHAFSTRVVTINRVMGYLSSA
T2 sequence (looked up) 2: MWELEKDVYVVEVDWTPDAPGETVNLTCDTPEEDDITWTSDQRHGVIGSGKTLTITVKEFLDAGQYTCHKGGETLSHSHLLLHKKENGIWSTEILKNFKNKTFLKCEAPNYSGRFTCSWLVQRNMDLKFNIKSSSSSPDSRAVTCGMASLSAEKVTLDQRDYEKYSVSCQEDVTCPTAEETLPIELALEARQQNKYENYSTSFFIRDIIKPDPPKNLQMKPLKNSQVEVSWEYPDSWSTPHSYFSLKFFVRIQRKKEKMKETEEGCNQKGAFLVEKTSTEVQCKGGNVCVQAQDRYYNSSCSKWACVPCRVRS
Experimental: (§1) The first characterization assay was a neutravidin capture assay. 96-well Maxisorp plates were coated (100 μl/well) with 5 μg/ml of neutravidin in PBS and were incubated at 4° C. overnight. Coated plates were washed with TBST. […] Plates were washed with TBST and blocked with 300 μl/well of 1× Chemiblocker for 1 hour at RT. Plates were washed with TBST. […] Plates were washed with TBST. Plates were treated for 1 hour at RT with 100 μl/well of goat anti-human IgG (H+L)-AP detection antibody diluted 1:5000 in TBST. AttoPhos substrate (1:5) detected AP activity.

[5] = biological target: rat transferrin (biotinylated control protein) (rat, UniProt P12346 20-698, biotinylated (site not stated)); assay: neutravidin capture ELISA
Chain of rat transferrin (biotinylated control protein) (P12346 20-698 limits assumed): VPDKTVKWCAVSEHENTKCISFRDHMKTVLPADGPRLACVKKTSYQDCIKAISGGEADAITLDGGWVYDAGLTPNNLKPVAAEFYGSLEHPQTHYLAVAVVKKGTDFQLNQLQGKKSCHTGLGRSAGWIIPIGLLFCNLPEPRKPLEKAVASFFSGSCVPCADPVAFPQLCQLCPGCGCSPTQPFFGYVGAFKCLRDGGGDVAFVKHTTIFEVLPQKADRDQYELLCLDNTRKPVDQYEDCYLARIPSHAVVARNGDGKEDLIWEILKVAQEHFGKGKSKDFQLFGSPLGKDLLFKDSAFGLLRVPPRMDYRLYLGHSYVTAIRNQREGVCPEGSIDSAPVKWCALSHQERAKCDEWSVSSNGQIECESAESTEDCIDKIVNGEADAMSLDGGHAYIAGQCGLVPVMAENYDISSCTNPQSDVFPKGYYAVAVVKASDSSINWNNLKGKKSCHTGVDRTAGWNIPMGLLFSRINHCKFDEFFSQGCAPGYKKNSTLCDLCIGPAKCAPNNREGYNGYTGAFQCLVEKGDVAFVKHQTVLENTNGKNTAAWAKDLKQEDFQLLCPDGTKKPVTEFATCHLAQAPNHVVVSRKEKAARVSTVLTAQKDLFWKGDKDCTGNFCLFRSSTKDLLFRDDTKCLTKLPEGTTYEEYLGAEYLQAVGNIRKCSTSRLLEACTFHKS
Experimental: as §1

[6] = biological target: T3, mouse IL-18 (biotinylated control protein) (mouse, UniProt P70380 36-192, biotinylated (site not stated)); assay: neutravidin capture ELISA
T3 sequence (looked up): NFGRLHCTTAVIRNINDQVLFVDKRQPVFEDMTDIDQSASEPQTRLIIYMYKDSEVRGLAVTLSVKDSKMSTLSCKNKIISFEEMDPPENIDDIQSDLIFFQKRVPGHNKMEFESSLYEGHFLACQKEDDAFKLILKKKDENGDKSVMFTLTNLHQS
Experimental: as §1

[7] = biological target: T4, mouse IL-23 (biotinylated control protein) (mouse, UniProt Q9EQ14 22-196; P43432 23-335, biotinylated (site not stated)); assay: neutravidin capture ELISA
T4 sequence (looked up) 1: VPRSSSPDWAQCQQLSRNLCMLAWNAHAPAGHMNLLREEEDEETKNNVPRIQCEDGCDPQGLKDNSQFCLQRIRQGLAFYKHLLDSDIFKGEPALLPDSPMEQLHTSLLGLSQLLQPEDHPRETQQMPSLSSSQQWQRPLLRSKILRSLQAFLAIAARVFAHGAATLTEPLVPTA
T4 sequence (looked up) 2: T2 sequence (looked up) 2
Experimental: as §1

B1: PHD 191 (format not stated in the assay) (antibody, V domains shown)
VH: QVELVQSGAEVKKPGSSVKVSCKASGGTFSAIHWVRQAPGQGLEWMGGIIPIFGMADYAQKFQGRVTITADESTSTAYMELSSLRSEDTAVYYCARTDYGFRALDYWGQGTLVTVSS
VL: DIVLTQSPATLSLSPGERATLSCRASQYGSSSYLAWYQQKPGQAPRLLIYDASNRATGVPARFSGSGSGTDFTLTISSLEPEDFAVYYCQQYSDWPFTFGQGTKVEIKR
- Ki [1]: ~0.02 µM
- IC50 [2]: 0.0485 µM
- IC50 of inhibition of GLP-1 dependent cAMP accumulation (0.3 nM GLP-1, HEK293F cells over-expressing human GLP-1R) [3]: 0.0033 µM

B2: PHD 191 mAb, human IgG1 / human kappa (antibody, V domains shown)
VH: B1 VH
VL: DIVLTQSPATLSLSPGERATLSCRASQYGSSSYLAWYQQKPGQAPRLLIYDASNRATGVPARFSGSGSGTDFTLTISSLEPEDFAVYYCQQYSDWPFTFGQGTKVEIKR
notes: The human IgG1/kappa format is inferred from the goat anti-human IgG (H+L) detection antibody
- binding result [4]: no binding (tested: starting at 5 µg/ml)
- binding result [5]: no binding (tested: starting at 5 µg/ml)
- binding result [6]: no binding (tested: starting at 5 µg/ml)
- binding result [7]: no binding (tested: starting at 5 µg/ml)
